# Target: the molecule itself
# Experiment: cryo-EM structure
protein,measurement,value
"truncated β3-SBP (GABAA receptor β3 subunit, M3-M4 loop replaced by SQPARAA), from Expi293F cells (receptor) QSVNDPGNMSFVKETVDKLLKGYDIRLRPDFGGPPVCVGMNIDIASIDMVSEVNMDYTLTMYFQQYWRDKRLAYSGIPLNLTLDNRVADQLWVPDTYFLNDKKSFVHGVTVKNRMIRLHPDGTVLYGLRITTTAACMMDLRRYPLDEQNCTLEIESYGYTTDDIEFYWRGGDKAVTGVERIELPQFSIVEHRLVSRNVVFATGAYPRLSLSFRLKRNIGYFILQTYMPSILITILSWVSFWINYDASAARVALGITTVLTMTTINTHLRETLPKIPYVKAIDMYLMGCFVFVFLALLEYAFVNYIFFSQPARAAAIDRWSRIVFPFTFSLFNLVYWLYYVN",stoichiometry N,5

# From paper doi:10.1101/2025.09.29.679341 (bioRxiv, 2025)
